T1: human lymphotoxin (human, UniProt P01374 35-205, limits assumed)
T1 sequence (looked up): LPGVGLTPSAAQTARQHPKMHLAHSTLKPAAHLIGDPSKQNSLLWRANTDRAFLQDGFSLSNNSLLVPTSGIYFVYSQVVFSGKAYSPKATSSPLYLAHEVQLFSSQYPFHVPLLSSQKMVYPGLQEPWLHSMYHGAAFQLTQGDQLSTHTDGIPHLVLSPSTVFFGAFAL


Assays:
recombinant human TNFα [1] = molecular target: T2, recombinant human TNFα (human, UniProt P01375 77-233, 125I-labeled in the receptor-blocking assay ; 125I-labelled (positions not stated) only in the receptor-blocking assay; soluble homotrimer of this 17 kD subunit); assay: cell-based or functional assay
recombinant human TNFα [2] = molecular target: T2, recombinant human TNFα; assay: inhibition of 125I-TNFα binding to plate-coated p55-sf2 by hybridoma supernatant
Experimental: (§1) Although eight TNV mAb samples were tested in these experiments, for simplicity three of the mAbs that were shown by DNA sequence analyses to be identical to one of the other TNV mAbs (see Section 5.2.2) are not shown here. Each sample was tested in duplicate. The results shown are representative of two independent experiments.
(§2) 50:1 of p55-sf2 at 0.5 :g/ml in PBS was added to Optiplates to coat the wells during a one-hour incubation at 37° C. Serial dilutions of the eight TNV cell supernatants were prepared in 96-well round-bottom plates using PBS/0.1% BSA as diluent. […] The mixture was preincubated for one hour at RT. […] After 2 hrs at RT, Optiplates were washed three times with PBS-Tween. […] of Microscint-20 was added and the cpm bound determined using the TopCount gamma counter.

recombinant human TNFα [3] = molecular target: T2, recombinant human TNFα; assay: competition radioligand assay: mAb in hybridoma supernatant preincubated with 5 ng/ml 125I-TNFα, then 125I-TNFα bound to plate-coated p55-sf2 (TNF receptor/IgG fusion) counted as cpm
Experimental: as §1, §2

human lymphotoxin = molecular target: T1, human lymphotoxin; assay: not described

Row | Binder | neutralizing TNFα bioactivity (potency relative to TNV14) (recombinant human TNFα [1]) [fold] | fold better at blocking TNF binding than TNV118 and TNV14 (recombinant human TNFα [2]) [fold] | IC50 (read off the curve) (recombinant human TNFα [3]) [ng/mL] | binding result (human lymphotoxin)
1 | GenTNV148.26.12 (antibody, human IgG1, kappa, V domains shown, also called C420A) VH: QVQLVESGGGVVQPGRSLRLSCAASGFIFSSYAMHWVRQAPGNGLEWVAFMSYDGSNKKYADSVKGRFTISRDNPKNTLYLQMNSLRAEDTAVYYCARDRGIAAGGNYYYYGMDVWGQGTTVTVSS VL: EIVLTQSPATLSLSPGERATLSCRASQSVYSYLAWYQQKPGQAPRLLIYDASNRATGIPARFSGSGSGTDFTLTISSLEPEDFAVYYCQQRSNWPPFTFGPGTKVDIKR | 4 | ~4 | ~3 | 
2 | GenTNV86.14.34 (antibody, human IgG1, kappa, V domains shown, also called C417A) VH: QVQLVESGGGVVQPGRSLRLSCAASGFIFSSYAMHWVRQAPGNGLEWVAFMSYDGSNKKYADSVKGRFTISRDNPKNTLYLQMNSLRAEDTAVYYCARDRGIAAGGNYYYYGMDVWGQGTTVTVSS VL: EIVLTQSPATLSLSPGERATLSCRASQSVYSYLAWYQQKPGQAPRLLIYDASNRATGIPARFSGSGSGTDFTLTISSLEPEDFAVYYCQQRSNWPPFTFGPGTKVDIKR |  | ~4 |  | 
3 | golimumab (antibody, human IgG1, kappa, V domains shown, partial cyclic succinimide at LC Asn93 (LC cycAsn93); N-glycosylated on asparagine 306; partial deamidation of HC Asn43, Fully human IgG1 kappa, produced in Sp2/0 cells; also called SIMPONI) VH: QVQLVESGGGVVQPGRSLRLSCAASGFIFSSYAMHWVRQAPGNGLEWVAFMSYDGSNKKYADSVKGRFTISRDNSKNTLYLQMNSLRAEDTAVYYCARDRGIAAGGNYYYYGMDVWGQGTTVTVSS VL: EIVLTQSPATLSLSPGERATLSCRASQSVYSYLAWYQQKPGQAPRLLIYDASNRATGIPARFSGSGSGTDFTLTISSLEPEDFAVYYCQQRSNWPPFTFGPGTKVDIKR |  |  |  | no binding
